Experimental data from patent publication US20160002318A1.

Experiments:
Assay in all cases: cell-based or functional assay
[1] = molecular target: HA of influenza B virus B/Harbin/7/1994 (live virus) (influenza B virus B/Harbin/7/1994)
[2] = molecular target: HA of influenza B virus B/Brisbane/60/2008 (live virus) (influenza B virus B/Brisbane/60/2008)
[3] = molecular target: HA of influenza B virus B/Florida/04/2006 (live virus) (influenza B virus B/Florida/04/2006)
[4] = molecular target: HA of influenza B virus B/Malaysia/2506/2004 (live virus) (influenza B virus B/Malaysia/2506/2004)

Row | Binder | VNA titers [1] | HI titers [2] | VNA titers [2] | HI titers [3] | VNA titers [3] | VNA titers in µg/ml (*assay was done with 25 TCIDs) [4] | HI titers [1] | HI titers [4]
1 | CR11036 (antibody, V domains shown) VH: EVQLVQSGAEVKKPGASVTVSCKASGYAFTSYYLHWVRQAPGQGLEWMGIMNLHGGSTTYAQKFQGRVTMTRDTSTRTVYMELSGLRSEDSAVYYCARESPDSSGYPGYYGMDVWGQGTTVTVSS VL: EIVLTQSPGTLSLSPGERATLSCRASQSVSSDFFAWYQQKRGQTPTLLIYGTSTRATGIPDRFSGSGSGTDFTLSVARLEPEDFAVYYCQQYGSSTWTFGQGTKVEIK | 0.02 µg/mL | > 10 µg/mL | < 0.14 µg/mL | > 10 µg/mL | < 0.06 µg/mL | 0.22 µg/mL | – | –
2 | CR11038 (antibody, V domains shown) VH: EVQLVESGAEVKKPGASVKVSCKASGYAFTSYYLHWVRQAPGQGLEWMGIMNPHGGSTTYAQKFQGRVTMTRDTSTSTVYMELSSLRSEDTAVYYCARESPDSSGYPGYYGMDVWGQGTTVTVSS VL: SYELTQPPSASGTPGQRVTMSCSGSRSNIGSNPVSWFQQLPGMVPKLLIYTNDQRPSGVPDRFSGSKSGPSASLAISGLQSEDEADYYCAAWDDSLKGWVFGGGTKLTVL | 0.05 µg/mL | 0.31 µg/mL | 0.55 µg/mL | 1.25 µg/mL | < 0.06 µg/mL | 2.1 µg/mL | – | –
3 | CR11039 (antibody, V domains shown) VH: EVQLVQSGAEVKKPGESVKISCKTSGYAFTGYGISWVRQAPGQGLEWMGWINTYKFNTNYAQNLQGRVTMTIDTSTSAAYMELRSLRYEDTAVYFCARDWAGPFGNAFDVWGQGTMVTVSS VL: IQMTQSPSSLSASIGDRVAITCQASQDISDYLNWYQQQPGKAPKLLLYGASNLETGVPSRFSGSGSGTDFTFTISSLQPEDIATYYCQQYGNLPPTFGGGTKLEIK | 0.02 µg/mL | 0.44 µg/mL | < 0.14 µg/mL | 0.63 µg/mL | < 0.06 µg/mL | 0.06 µg/mL | – | –
4 | CR8031 (antibody, V domains shown) VH: EVQLVESGGGLVQPGRSLRLSCAASGFTFDEYIMHWVRQAPGKGPEWVAGINWKGNFMGYADSVQGRFTISRDNAKNSLYLQMNSLRADDTALYYCAKDRLESSAMDILEGGTFDIWGQGTMVT VL: QSALTQPASVSGSPGQSITISCTGTSSDVGGYNYVSWYQQHPGKAPKLMIYDVSSRPSGVSNRFSGSKSGDTASLSISGLQAEDEADYYCSSYTSSSTHVFGTGTKVTVL | 1.24 µg/mL | – | – | – | 0.88 µg/mL | > 50 µg/mL | – | –
5 | CR8033 (antibody, V domains shown) VH: EVQLVETGGGLVQPGRSLRLSCAASGFSFDEYTMHWVRQAPGKGLEWVAGINWKGNFMGYADSVQGRFTISRDNGKNSLYLQMNSLRAEDTALYYCAKDRLESSAMDILEGGTFDIWGQGTMVT VL: EIVLTQSPGTLSLSPGERATLSCRASQSVSSSYLAWYQQKPGQAPRLLIYGASTRATGIPARFSGSGSGTDFTLTISRLEPEDLAVYYCQQYGSSPWTFGQGTKVEIK | 0.03 µg/mL | > 50 µg/mL | 5.95 µg/mL | 0.22 µg/mL | 0.02 µg/mL | 0.88 µg/mL | 0.39 µg/mL | > 50 µg/mL
6 | CR11035 (antibody, V domains shown) VH: QVQLVQSGAEVKKPGSSVKVSCKTSGYAFNGYGISWVRQAPGQGLEWVAWINTYKVNTHYAQNLRGRVTVSIDTSTTTAYMELRSLRSDDTAVYYCARDWGGPFGNAFDFWGQGTMVTVSS VL: DIQMTQSPSSLAASIGDSVTITCRASQSVGSYLNWYQQKPGKAPKLLIYGASNVQSGVPSRFSGSESGTESTLTINNLQPEDSATYYCQQSYSTPRTFGQGTKVEIK | 0.16 µg/mL | 0.26 µg/mL | 0.93 µg/mL | > 10 µg/mL | < 0.06 µg/mL | 0.53 µg/mL | – | –
7 | CR8059 (antibody, V domains shown) VH: EVQLVQSGAEVKKPGASVRVSCRASGYIFTESGITWVRQAPGQGLEWMGWISGYSGDTKYAQKLQGRVTMTKDTSTTTAYMELRSLRYDDTAVYYCARDVQYSGSYLGAYYFDYWSPGTLVTVSS VL: SYVLTQPPSASGTPGQRVTISCSGSSSNIGTNYVYWYQQFPGTAPKLLIYRSYQRPSGVPDRFSGSKSGSSASLAISGLQSEDEADYYCATWDDSLNGWVFGGGTKLTVL | 2.39 µg/mL | > 50 µg/mL | 4.55 µg/mL | > 50 µg/mL | 3.23 µg/mL | 17.7 µg/mL | > 50 µg/mL | > 50 µg/mL
8 | CR8071 (antibody, V domains shown) VH: QVQLVQSGAEVKKPGASVRVSCRASGYIFTESGITWVRQAPGQGLEWMGWISGYSGDTKYAQKLQGRVTMTKDTSTTTAYMELRSLRYDDTAVYYCARDVQYSGSYLGAYYFDYWSPGTLVTVSS VL: QSVLTQPPSASGTPGQRVTISCSGSSSNIGTNYVYWYQQFPGTAPKLLIYRSYQRPSGVPDRFSGSKSGSSASLAISGLQSEDEADYYCATWDDSLDGWVFGGGTKLTVLR | 2.34 µg/mL | > 50 µg/mL | 3.72 µg/mL | > 50 µg/mL | 2.12 µg/mL | 14.9 µg/mL | > 50 µg/mL | > 50 µg/mL
9 | CR10023 (antibody, V domains shown) VH: EVQLVETGGGLVQPGRSLRLSCAASGFTFDDYAMHWVRQAPGKGLEWVSGINWVSTTMGYADSVKGRFTISRDNAKNSLYLQMNSLRAEDTALYYCAKDRLESAAIDILEGGTFDIRGQGTMVTVSS VL: QSALTQPPSASGSPGQSVTISCTGTSSDVGGYNYVSWYQQHPGKAPKLMIYDVSKRPSGVPDRFSGSKSGNTASLTISGLQAEDEAEYYCSSYASGSTYVFGTGTKVTVL | 0.26 µg/mL | > 50 µg/mL | 7.07 µg/mL | 1.56 µg/mL | < 0.55 µg/mL | 12.5 µg/mL | 1.1 µg/mL | > 50 µg/mL
10 | CR8034 (antibody, V domains shown) VH: EVQLVETGGGLVQPGRSLRLSCAASGFTFDEYIMHWVRQAPGKGPEWVAGINWKGNFMGYADSVQGRFTISRDNAKNSLYLQMNSLRADDTALYYCAKDRLESSAMDILEGGTFDIWGQGTMVTVSS VL: DIQMTQSPSSLSASVGDRVTITCRASQGIRNDLGWYQQKPGKAPKRLIYAASSLQSGVPSRFSGSGSGTDFTLTISSLQPEDFATYYCQQANTYPLTFGGGTKLEIK | 0.29 µg/mL | – | – | – | 0.12 µg/mL | 2.31 µg/mL | – | –
11 | CR8035 (antibody, V domains shown) VH: EVQLVESGGGLVQPGRSLRLSCAASGFTFDEYIMHWVRQAPGKGPEWVAGINWKGNFMGYADSVQGRFTISRDNAKNSLYLQMNSLRADDTALYYCAKDRLESSAMDILEGGTFDIWGQGTMVTVSS VL: SSELTQDPAVSVALGQTVRITCQGDSLRSYYASWYQQKPGQAPVLVIYGKNNRPSGIPDRFSGSSSRNTASLTITGAQAEDEADYYCDSRDSSGTHYVFGGGTKVTVL | 0.66 µg/mL | – | – | – | 0.66 µg/mL | 4.46 µg/mL | – | –
12 | CR8032 (antibody, V domains shown) VH: EVQLVESGGGLVQPGRSLRLSCAASGFSFDEYIMHWVRQAPGKGLEWVAGINWKGNFMGYADSVQGRFTISRDNGKNSLYLQMNSLRAEDTALYYCAKDRLESSAMDILEGGTFDIWGQGTMVTVSS VL: QSALTQPASVSGSPGQSITISCTGTRRDVGDYKYVSWYQQHPGKAPKLMIYDVSNRPSGVSNRFSGSKSGTTASLTISGLQAEDEADYYCSSYTTSNTRVFGGGTKLTVL | 0.69 µg/mL | – | – | – | 0.69 µg/mL | 3.88 µg/mL | – | –
